Experiments:
[1] = tested on: HeLa Kyoto; experiment: solubility in G1/S (NP-40 vs SDS abundance) (log2 ratio); higher = more soluble; conditions: cell cycle stage: G1/S
[2] = tested on: HeLa Kyoto; experiment: melting temperature (median over replicates), in situ; higher = more thermally stable
[3] = tested on: HeLa Kyoto; experiment: solubility change mitosis vs G1/S (difference of NP-40 vs SDS log2 ratios) (log2 ratio difference); higher = more soluble in mitosis
[4] = tested on: HeLa Kyoto; experiment: thermal stability score vs G1/S (z-score of summed log2 fold changes over temperatures); higher = more thermally stable than in G1/S
[5] = cell cycle stage: early G1 (4.5 h after nocodazole release)
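Throughout, for melting temperature (median over replicates), in situ: HeLa Kyoto cells synchronized by double thymidine or nocodazole block, proteins quantified by TMT10plex mass spectrometry, three independent biological replicates.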
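Throughout, for solubility change mitosis vs G1/S (difference of NP-40 vs SDS log2 ratios): synchronized HeLa Kyoto cells (double thymidine block for G1/S, nocodazole release for mitosis), protein amounts in NP-40 versus SDS lysates quantified by mass spectrometry, three biological replicates.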
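Throughout, for solubility in G1/S (NP-40 vs SDS abundance): HeLa Kyoto cells arrested at G1/S by double thymidine block, proteins quantified by TMT10plex mass spectrometry in mild NP-40 versus SDS extracts, three biological replicates.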
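Throughout, for thermal stability score vs G1/S (z-score of summed log2 fold changes over temperatures): synchronized HeLa Kyoto cells, proteins quantified by TMT10plex mass spectrometry, three biological replicates, mitosis taken 0.5 h after nocodazole release, G1/S directly after double thymidine block.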

Sequence | solubility in G1/S (log2) [1] | melting temperature ([2]; cell cycle stage: G1/S) [°C] | melting temperature ([2]; cell cycle stage: mitosis) [°C] | solubility change mitosis (log2) [3] | thermal stability score [4, 5] | thermal stability score ([4]; cell cycle stage: mitosis)
MEPPSCIQDEPFPHPLEPEPGVSAQPGPGKPSDKRFRLWYVGGSCLDHRTTLPMLPWLMAEIRRRSQKPEAGGCGAPAAREVILVLSAPFLRCVPAPGAGASGGTSPSATQPNPAVFIFEHKAQHISRFIHNSHDLTYFAYLIKAQPDDPESQMACHVFRATDPSQVPDVISSIRQLSKAAMKEDAKPSKDNEDAFYNSQKFEVLYCGKVTVTHKKAPSSLIDDCMEKFSLHEQQRLKIQGEQRGPDPGEDLADLEVVVPGSPGDCLPEEADGTDTHLGLPAGASQPALTSSRVCFPERILEDSGFDEQQEFRSRCSSVTGVQRRVHEGSQKSQPRRRHASAPSHVQPSDSEKNRTMLFQVGRFEINLISPDTKSVVLEKNFKDISSCSQGIKHVDHFGFICRESPEPGLSQYICYVFQCASESLVDEVMLTLKQAFSTAAALQSAKTQIKLCEACPMHSLHKLCERIEGLYPPRAKLVIQRHLSSLTDNEQADIFERVQKMKPVSDQEENELVILHLRQLCEAKQKTHVHIGEGPSTISNSTIPENATSSGRFKLDILKNKAKRSLTSSLENIFSRGANRMRGRLGSVDSFERSNSLASEKDYSPGDSPPGTPPASPPSSAWQTFPEEDSDSPQFRRRAHTFSHPPSSTKRKLNLQDGRAQGVRSPLLRQSSSEQCSNLSSVRRMYKESNSSSSLPSLHTSFSAPSFTAPSFLKSFYQNSGRLSPQYENEIRQDTASESSDGEGRKRTSSTCSNESLSVGGTSVTPRRISWRQRIFLRVASPMNKSPSAMQQQDGLDRNELLPLSPLSPTMEEEPLVVFLSGEDDPEKIEERKKSKELRSLWRKAIHQQILLLRMEKENQKLEASRDELQSRKVKLDYEEVGACQKEVLITWDKKLLNCRAKIRCDMEDIHTLLKEGVPKSRRGEIWQFLALQYRLRHRLPNKQQPPDISYKELLKQLTAQQHAILVDLGRTFPTHPYFSVQLGPGQLSLFNLLKAYSLLDKEVGYCQGISFVAGVLLLHMSEEQAFEMLKFLMYDLGFRKQYRPDMMSLQIQMYQLSRLLHDYHRDLYNHLEENEISPSLYAAPWFLTLFASQFSLGFVARVFDIIFLQGTEVIFKVALSLLSSQETLIMECESFENIVEFLKNTLPDMNTSEMEKIITQVFEMDISKQLHAYEVEYHVLQDELQESSYSCEDSETLEKLERANSQLKRQNMDLLEKLQVAHTKIQALESNLENLLTRETKMKSLIRTLEQEKMAYQKTVEQLRKLLPADALVNCDLLLRDLNCNPNNKAKIGNKP [TBC1D4] | -0.0729 | 51.1 | 50.5 | -0.0775 | -0.833 | -0.739
MEPRAVGVSKQDIREQIWGYMESQNLADFPRPVHHRIPNFKGSYLACQNIKDLDVFARTQEVKVDPDKPLEGVRLLVLQSKKTLLVPTPRLRTGLFNKITPPPGATKDILRKCATSQGVRNYSVPIGLDSRVLVDLVVVGSVAVSEKGWRIGKGEGYADLEYAMMVSMGAVSKETPVVTIVHDCQVVDIPEELVEEHDITVDYILTPTRVIATGCKRPKPMGITWFKISLEMMEKIPILRSLRAREQQAGKDVTLQGEHQHLPEPGCQQTVPLSVGRRPPDTPGPETNSMEAAPGSPPGEGAPLAADVYVGNLPGDARVSDLKRALRELGSVPLRLTWQGPRRRAFLHYPDSAAAQQAVSCLQGLRLGTDTLRVALARQQRDK [MTHFSD] | -0.0248 | 54.7 | 53.5 | 0.0284 | -0.334 | -0.971
MEPSSKKLTGRLMLAVGGAVLGSLQFGYNTGVINAPQKVIEEFYNQTWVHRYGESILPTTLTTLWSLSVAIFSVGGMIGSFSVGLFVNRFGRRNSMLMMNLLAFVSAVLMGFSKLGKSFEMLILGRFIIGVYCGLTTGFVPMYVGEVSPTALRGALGTLHQLGIVVGILIAQVFGLDSIMGNKDLWPLLLSIIFIPALLQCIVLPFCPESPRFLLINRNEENRAKSVLKKLRGTADVTHDLQEMKEESRQMMREKKVTILELFRSPAYRQPILIAVVLQLSQQLSGINAVFYYSTSIFEKAGVQQPVYATIGSGIVNTAFTVVSLFVVERAGRRTLHLIGLAGMAGCAILMTIALALLEQLPWMSYLSIVAIFGFVAFFEVGPGPIPWFIVAELFSQGPRPAAIAVAGFSNWTSNFIVGMCFQYVEQLCGPYVFIIFTVLLVLFFIFTYFKVPETKGRTFDEIASGFRQGGASQSDKTPEELFHPLGADSQV [SLC2A1] | 0.0648 | 57.3 |  | -0.284 | -1.89 | -3.29
MEPTAPSLTEEDLTEVKKDALENLRVYLCEKIIAERHFDHLRAKKILSREDTEEISCRTSSRKRAGKLLDYLQENPKGLDTLVESIRREKTQNFLIQKITDEVLKLRNIKLEHLKGLKCSSCEPFPDGATNNLSRSNSDESNFSEKLRASTVMYHPEGESSTTPFFSTNSSLNLPVLEVGRTENTIFSSTTLPRPGDPGAPPLPPDLQLEEEGTCANSSEMFLPLRSRTVSRQ [BCL10] | 0.624 | 49.8 | 50.5 | 0.181 | -0.239 | -0.726
MEPVGCCGECRGSSVDPRSTFVLSNLAEVVERVLTFLPAKALLRVACVCRLWRECVRRVLRTHRSVTWISAGLAEAGHLEGHCLVRVVAEELENVRILPHTVLYMADSETFISLEECRGHKRARKRTSMETALALEKLFPKQCQVLGIVTPGIVVTPMGSGSNRPQEIEIGESGFALLFPQIEGIKIQPFHFIKDPKNLTLERHQLTEVGLLDNPELRVVLVFGYNCCKVGASNYLQQVVSTFSDMNIILAGGQVDNLSSLTSEKNPLDIDASGVVGLSFSGHRIQSATVLLNEDVSDEKTAEAAMQRLKAANIPEHNTIGFMFACVGRGFQYYRAKGNVEADAFRKFFPSVPLFGFFGNGEIGCDRIVTGNFILRKCNEVKDDDLFHSYTTIMALIHLGSSK [FBXO22] | -0.097 | 55.1 | 53.1 | -0.22 | -9.18 | -9.79
MEQLSSANTRFALDLFLALSENNPAGNIFISPFSISSAMAMVFLGTRGNTAAQLSKTFHFNTVEEVHSRFQSLNADINKRGASYILKLANRLYGEKTYNFLPEFLVSTQKTYGADLASVDFQHASEDARKTINQWVKGQTEGKIPELLASGMVDNMTKLVLVNAIYFKGNWKDKFMKEATTNAPFRLNKKDRKTVKMMYQKKKFAYGYIEDLKCRVLELPYQGEELSMVILLPDDIEDESTGLKKIEEQLTLEKLHEWTKPENLDFIEVNVSLPRFKLEESYTLNSDLARLGVQDLFNSSKADLSGMSGARDIFISKIVHKSFVEVNEEGTEAAAATAGIATFCMLMPEENFTADHPFLFFIRHNSSGSILFLGRFSSP [SERPINB1] | 0.121 | 53.2 | 53.2 | -0.165 | 1.35 | -2.02
MEQPPAPKSKLKKLSEDSLTKQPEEVFDVLEKLGEGSYGSVFKAIHKESGQVVAIKQVPVESDLQEIIKEISIMQQCDSPYVVKYYGSYFKNTDLWIVMEYCGAGSVSDIIRLRNKTLIEDEIATILKSTLKGLEYLHFMRKIHRDIKAGNILLNTEGHAKLADFGVAGQLTDTMAKRNTVIGTPFWMAPEVIQEIGYNCVADIWSLGITSIEMAEGKPPYADIHPMRAIFMIPTNPPPTFRKPELWSDDFTDFVKKCLVKNPEQRATATQLLQHPFIKNAKPVSILRDLITEAMEIKAKRHEEQQRELEEEEENSDEDELDSHTMVKTSVESVGTMRATSTMSEGAQTMIEHNSTMLESDLGTMVINSEDEEEEDGTMKRNATSPQVQRPSFMDYFDKQDFKNKSHENCNQNMHEPFPMSKNVFPDNWKVPQDGDFDFLKNLSLEELQMRLKALDPMMEREIEELRQRYTAKRQPILDAMDAKKRRQQNF [STK3] | 0.0428 | 53 | 53.3 | -0.13 | 1.31 | 1.36
MERKISRIHLVSEPSITHFLQVSWEKTLESGFVITLTDGHSAWTGTVSESEISQEADDMAMEKGKYVGELRKALLSGAGPADVYTFNFSKESCYFFFEKNLKDVSFRLGSFNLEKVENPAEVIRELICYCLDTIAENQAKNEHLQKENERLLRDWNDVQGRFEKCVSAKEALETDLYKRFILVLNEKKTKIRSLHNKLLNAAQEREKDIKQEGETAICSEMTADRDPVYDESTDEESENQTDLSGLASAAVSKDDSIISSLDVTDIAPSRKRRQRMQRNLGTEPKMAPQENQLQEKENSRPDSSLPETSKKEHISAENMSLETLRNSSPEDLFDEI [XRCC4] | 0.0124 | 55.2 | 54.7 | -0.0112 | -0.551 | -0.497
MERPQPDSMPQDLSEALKEATKEVHTQAENAEFMRNFQKGQVTRDGFKLVMASLYHIYVALEEEIERNKESPVFAPVYFPEELHRKAALEQDLAFWYGPRWQEVIPYTPAMQRYVKRLHEVGRTEPELLVAHAYTRYLGDLSGGQVLKKIAQKALDLPSSGEGLAFFTFPNIASATKFKQLYRSRMNSLEMTPAVRQRVIEEAKTAFLLNIQLFEELQELLTHDTKDQSPSRAPGLRQRASNKVQDSAPVETPRGKPPLNTRSQAPLLRWVLTLSFLVATVAVGLYAM [HMOX1] | 0.553 | 52.6 | 53.9 | -0.0689 | 0.266 | 0.9
MESAAALHFSRPASLLLLLLSLCALVSAQFIVVGPTDPILATVGENTTLRCHLSPEKNAEDMEVRWFRSQFSPAVFVYKGGRERTEEQMEEYRGRTTFVSKDISRGSVALVIHNITAQENGTYRCYFQEGRSYDEAILHLVVAGLGSKPLISMRGHEDGGIRLECISRGWYPKPLTVWRDPYGGVAPALKEVSMPDADGLFMVTTAVIIRDKSVRNMSCSINNTLLGQKKESVIFIPESFMPSVSPCAVALPIIVVILMIPIAVCIYWINKLQKEKKILSGEKEFERETREIALKELEKERVQKEEELQVKEKLQEELRWRRTFLHAVDVVLDPDTAHPDLFLSEDRRSVRRCPFRHLGESVPDNPERFDSQPCVLGRESFASGKHYWEVEVENVIEWTVGVCRDSVERKGEVLLIPQNGFWTLEMHKGQYRAVSSPDRILPLKESLCRVGVFLDYEAGDVSFYNMRDRSHIYTCPRSAFSVPVRPFFRLGCEDSPIFICPALTGANGVTVPEEGLTLHRVGTHQSL [BTN2A1] | -0.062 | 52.7 | 53.4 | -0.101 | -0.399 | -0.343
MESGAYGAAKAGGSFDLRRFLTQPQVVARAVCLVFALIVFSCIYGEGYSNAHESKQMYCVFNRNEDACRYGSAIGVLAFLASAFFLVVDAYFPQISNATDRKYLVIGDLLFSALWTFLWFVGFCFLTNQWAVTNPKDVLVGADSVRAAITFSFFSIFSWGVLASLAYQRYKAGVDDFIQNYVDPTPDPNTAYASYPGASVDNYQQPPFTQNAETTEGYQPPPVY [SYNGR2] | 0.192 | 54.9 | 56.3 | -0.171 | -2 | -3.51
MESRKLISATDIQYSGSLLNSLNEQRGHGLFCDVTVIVEDRKFRAHKNILSASSTYFHQLFSVAGQVVELSFIRAEIFAEILNYIYSSKIVRVRSDLLDELIKSGQLLGVKFIAELGVPLSQVKSISGTAQDGNTEPLPPDSGDKNLVIQKSKDEAQDNGATIMPIITESFSLSAEDYEMKKIIVTDSDDDDDDVIFCSEILPTKETLPSNNTVAQVQSNPGPVAISDVAPSASNNSPPLTNITPTQKLPTPVNQATLSQTQGSEKLLVSSAPTHLTPNIILLNQTPLSTPPNVSSSLPNHMPSSINLLVQNQQTPNSAILTGNKANEEEEEEIIDDDDDTISSSPDSAVSNTSLVPQADTSQNTSFDGSLIQKMQIPTLLQEPLSNSLKISDIITRNTNDPGVGSKHLMEGQKIITLDTATEIEGLSTGCKVYANIGEDTYDIVIPVKDDPDEGEARLENEIPKTSGSEMANKRMKVKHDDHYELIVDGRVYYICIVCKRSYVCLTSLRRHFNIHSWEKKYPCRYCEKVFPLAEYRTKHEIHHTGERRYQCLACGKSFINYQFMSSHIKSVHSQDPSGDSKLYRLHPCRSLQIRQYAYLSDRSSTIPAMKDDGIGYKVDTGKEPPVGTTTSTQNKPMTWEDIFIQQENDSIFKQNVTDGSTEFEFIIPESY [ZBTB33] | -0.035 | 46.4 | 51.6 | -0.162 | 1.76 | 3.1

— the supplement of paper PMC5998384
